Data from US20230092081A1.

Target: S. ruber SSB cdel 111 C-terminal deletion mutant lacking the C-terminal 111 residues of the wildtype SSB (Salinibacter ruber)
Experiment: size exclusion chromatography, 150 mM NaCl, self-association

“S. ruber SSB cdel 111 C-terminal deletion mutant lacking the C-terminal 111 residues of the wildtype SSB” showed an oligomer mass as multiple of the monomer mass (times monomer size) of 3.8.
